Consider two molecules from patent US20020081718, “POLYPEPTIDE, AND A DNA SEQUENCE TO WHICH A PROTEIN CONTAINING THE POLYPETIDE BINDS” (published 2002).

Series [1] deals with T1, hGCMa N-terminal fragment (Homo sapiens, UniProt Q9NP62 SEQ:1-171).
T1 chain: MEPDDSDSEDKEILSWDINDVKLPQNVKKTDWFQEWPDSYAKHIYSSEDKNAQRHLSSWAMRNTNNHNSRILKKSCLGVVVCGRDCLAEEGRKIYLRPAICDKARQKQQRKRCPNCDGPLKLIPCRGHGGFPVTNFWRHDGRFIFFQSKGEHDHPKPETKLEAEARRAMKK
Nature of the series: competition; results stated similar to those of GCM. As to the method: Gel shift assays and competition assays were carried out in the same manner as above by using proteins obtained by causing expression of DNA fragments of up to the 171-st amino acid residue of hGCMa, giving results similar to those of GCM.

The target of series [2] is T2, GCM N243 (MBP fusion) (Drosophila, UniProt Q27403 SEQ:1-243).
T2 chain: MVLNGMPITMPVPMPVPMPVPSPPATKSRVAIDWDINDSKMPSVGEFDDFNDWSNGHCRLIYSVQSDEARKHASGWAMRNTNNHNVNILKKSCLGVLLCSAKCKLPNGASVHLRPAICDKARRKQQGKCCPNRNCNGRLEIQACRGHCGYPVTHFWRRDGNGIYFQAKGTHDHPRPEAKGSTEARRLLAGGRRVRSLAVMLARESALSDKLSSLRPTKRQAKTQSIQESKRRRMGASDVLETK
In words: competition; no competition. As to conditions: tags: MBP fusion (pMAL, E. coli).

In series [3] the target is T2, GCM N243 (MBP fusion). Nature of the series: competition; dose-dependent competition of labeled 200 bp repo fragment, 1-1000x. The settings on record: tags: MBP fusion (pMAL, E. coli).

B1: competitor b without GCM site (dsDNA)
DNA 1: TGTGTGGAATTGTGAGCGGATATACTAATTTGTTAGGTTTTCCCAGTCACGACG
DNA 2: CGTCGTGACTGGGAAAACCTAACAAATTAGTATATCCGCTCACAATTCCACACA
Take B1: the binding result in series [1] and in series [2] was “no binding” in each case.

B2: competitor a with GCM site (dsDNA)
DNA 1: TGTGTGGAATTGTGAGCGGACCTACCCGCATTACGGGTTTTCCCAGTCACGACG
DNA 2: CGTCGTGACTGGGAAAACCCGTAATGCGGGTAGGTCCGCTCACAATTCCACACA
For B2, the binding result in series [3] and in series [1] was “binds” throughout.
